Here are results for 15 molecules from patent publication US20220040297A1 (Chugai, published 2022).

B1: GLS3000 Q90A (antibody, name in Kabat numbering, V domains shown)
VH: QVQLVESGGGVVQPGRSLRLSCAASGFTFSNAWMHWVRQAPGKGLEWVAQIKAKSNNYATYYAESVKGRFTISRDDSKNSLYLQMNSLKTEDTAVYYCRYVHYGAYYGVDAWGQGTTVTVSS
VL: DIVMTQSPLSLPVTPGEPASISCRSSQSLVHSNRNTYLHWYQQKPGQAPRLLIYKVSNRFSGVPDRFSGSGSGTDFTLKISRVEAEDVGVYYCGAGTQVPYTFGQGTKLEIK
notes: one-arm format as m2
B2: GLS3000 Q90P (antibody, name in Kabat numbering, V domains shown)
VH: QVQLVESGGGVVQPGRSLRLSCAASGFTFSNAWMHWVRQAPGKGLEWVAQIKAKSNNYATYYAESVKGRFTISRDDSKNSLYLQMNSLKTEDTAVYYCRYVHYGAYYGVDAWGQGTTVTVSS
VL: DIVMTQSPLSLPVTPGEPASISCRSSQSLVHSNRNTYLHWYQQKPGQAPRLLIYKVSNRFSGVPDRFSGSGSGTDFTLKISRVEAEDVGVYYCGPGTQVPYTFGQGTKLEIK
notes: one-arm format as m2
B3: GLS3000 Q93E (antibody, name in Kabat numbering, V domains shown)
VH: QVQLVESGGGVVQPGRSLRLSCAASGFTFSNAWMHWVRQAPGKGLEWVAQIKAKSNNYATYYAESVKGRFTISRDDSKNSLYLQMNSLKTEDTAVYYCRYVHYGAYYGVDAWGQGTTVTVSS
VL: DIVMTQSPLSLPVTPGEPASISCRSSQSLVHSNRNTYLHWYQQKPGQAPRLLIYKVSNRFSGVPDRFSGSGSGTDFTLKISRVEAEDVGVYYCGQGTEVPYTFGQGTKLEIK
notes: one-arm format as m2
B4: GLS3000 Q93Y (antibody, name in Kabat numbering, V domains shown)
VH: QVQLVESGGGVVQPGRSLRLSCAASGFTFSNAWMHWVRQAPGKGLEWVAQIKAKSNNYATYYAESVKGRFTISRDDSKNSLYLQMNSLKTEDTAVYYCRYVHYGAYYGVDAWGQGTTVTVSS
VL: DIVMTQSPLSLPVTPGEPASISCRSSQSLVHSNRNTYLHWYQQKPGQAPRLLIYKVSNRFSGVPDRFSGSGSGTDFTLKISRVEAEDVGVYYCGQGTYVPYTFGQGTKLEIK
notes: one-arm format as m2
B5: GLS3000 Q93S (antibody, name in Kabat numbering, V domains shown)
VH: QVQLVESGGGVVQPGRSLRLSCAASGFTFSNAWMHWVRQAPGKGLEWVAQIKAKSNNYATYYAESVKGRFTISRDDSKNSLYLQMNSLKTEDTAVYYCRYVHYGAYYGVDAWGQGTTVTVSS
VL: DIVMTQSPLSLPVTPGEPASISCRSSQSLVHSNRNTYLHWYQQKPGQAPRLLIYKVSNRFSGVPDRFSGSGSGTDFTLKISRVEAEDVGVYYCGQGTSVPYTFGQGTKLEIK
notes: one-arm format as m2
B6: GLS3000 Q93A (antibody, name in Kabat numbering, V domains shown)
VH: QVQLVESGGGVVQPGRSLRLSCAASGFTFSNAWMHWVRQAPGKGLEWVAQIKAKSNNYATYYAESVKGRFTISRDDSKNSLYLQMNSLKTEDTAVYYCRYVHYGAYYGVDAWGQGTTVTVSS
VL: DIVMTQSPLSLPVTPGEPASISCRSSQSLVHSNRNTYLHWYQQKPGQAPRLLIYKVSNRFSGVPDRFSGSGSGTDFTLKISRVEAEDVGVYYCGQGTAVPYTFGQGTKLEIK
notes: one-arm format as m2
B7: GLS3000 R24A (antibody, name in Kabat numbering, V domains shown)
VH: QVQLVESGGGVVQPGRSLRLSCAASGFTFSNAWMHWVRQAPGKGLEWVAQIKAKSNNYATYYAESVKGRFTISRDDSKNSLYLQMNSLKTEDTAVYYCRYVHYGAYYGVDAWGQGTTVTVSS
VL: DIVMTQSPLSLPVTPGEPASISCASSQSLVHSNRNTYLHWYQQKPGQAPRLLIYKVSNRFSGVPDRFSGSGSGTDFTLKISRVEAEDVGVYYCGQGTQVPYTFGQGTKLEIK
notes: one-arm format as m2
B8: GLS3000 Q90E (antibody, name in Kabat numbering, V domains shown)
VH: QVQLVESGGGVVQPGRSLRLSCAASGFTFSNAWMHWVRQAPGKGLEWVAQIKAKSNNYATYYAESVKGRFTISRDDSKNSLYLQMNSLKTEDTAVYYCRYVHYGAYYGVDAWGQGTTVTVSS
VL: DIVMTQSPLSLPVTPGEPASISCRSSQSLVHSNRNTYLHWYQQKPGQAPRLLIYKVSNRFSGVPDRFSGSGSGTDFTLKISRVEAEDVGVYYCGEGTQVPYTFGQGTKLEIK
notes: one-arm format as m2
B9: GLS3000 R24D (antibody, name in Kabat numbering, V domains shown)
VH: QVQLVESGGGVVQPGRSLRLSCAASGFTFSNAWMHWVRQAPGKGLEWVAQIKAKSNNYATYYAESVKGRFTISRDDSKNSLYLQMNSLKTEDTAVYYCRYVHYGAYYGVDAWGQGTTVTVSS
VL: DIVMTQSPLSLPVTPGEPASISCDSSQSLVHSNRNTYLHWYQQKPGQAPRLLIYKVSNRFSGVPDRFSGSGSGTDFTLKISRVEAEDVGVYYCGQGTQVPYTFGQGTKLEIK
notes: one-arm format as m2
B10: GLS3000 Q90S (antibody, name in Kabat numbering, V domains shown)
VH: QVQLVESGGGVVQPGRSLRLSCAASGFTFSNAWMHWVRQAPGKGLEWVAQIKAKSNNYATYYAESVKGRFTISRDDSKNSLYLQMNSLKTEDTAVYYCRYVHYGAYYGVDAWGQGTTVTVSS
VL: DIVMTQSPLSLPVTPGEPASISCRSSQSLVHSNRNTYLHWYQQKPGQAPRLLIYKVSNRFSGVPDRFSGSGSGTDFTLKISRVEAEDVGVYYCGSGTQVPYTFGQGTKLEIK
notes: one-arm format as m2
B11: GLS3000 Q93R (antibody, name in Kabat numbering, V domains shown)
VH: QVQLVESGGGVVQPGRSLRLSCAASGFTFSNAWMHWVRQAPGKGLEWVAQIKAKSNNYATYYAESVKGRFTISRDDSKNSLYLQMNSLKTEDTAVYYCRYVHYGAYYGVDAWGQGTTVTVSS
VL: DIVMTQSPLSLPVTPGEPASISCRSSQSLVHSNRNTYLHWYQQKPGQAPRLLIYKVSNRFSGVPDRFSGSGSGTDFTLKISRVEAEDVGVYYCGQGTRVPYTFGQGTKLEIK
notes: one-arm format as m2
B12: GLS3000 Q90D (antibody, name in Kabat numbering, V domains shown)
VH: QVQLVESGGGVVQPGRSLRLSCAASGFTFSNAWMHWVRQAPGKGLEWVAQIKAKSNNYATYYAESVKGRFTISRDDSKNSLYLQMNSLKTEDTAVYYCRYVHYGAYYGVDAWGQGTTVTVSS
VL: DIVMTQSPLSLPVTPGEPASISCRSSQSLVHSNRNTYLHWYQQKPGQAPRLLIYKVSNRFSGVPDRFSGSGSGTDFTLKISRVEAEDVGVYYCGDGTQVPYTFGQGTKLEIK
notes: one-arm format as m2
B13: GLS3000 Q93D (antibody, name in Kabat numbering, V domains shown)
VH: QVQLVESGGGVVQPGRSLRLSCAASGFTFSNAWMHWVRQAPGKGLEWVAQIKAKSNNYATYYAESVKGRFTISRDDSKNSLYLQMNSLKTEDTAVYYCRYVHYGAYYGVDAWGQGTTVTVSS
VL: DIVMTQSPLSLPVTPGEPASISCRSSQSLVHSNRNTYLHWYQQKPGQAPRLLIYKVSNRFSGVPDRFSGSGSGTDFTLKISRVEAEDVGVYYCGQGTDVPYTFGQGTKLEIK
notes: one-arm format as m2
B14: GLS3000 Q93P (antibody, name in Kabat numbering, V domains shown)
VH: QVQLVESGGGVVQPGRSLRLSCAASGFTFSNAWMHWVRQAPGKGLEWVAQIKAKSNNYATYYAESVKGRFTISRDDSKNSLYLQMNSLKTEDTAVYYCRYVHYGAYYGVDAWGQGTTVTVSS
VL: DIVMTQSPLSLPVTPGEPASISCRSSQSLVHSNRNTYLHWYQQKPGQAPRLLIYKVSNRFSGVPDRFSGSGSGTDFTLKISRVEAEDVGVYYCGQGTPVPYTFGQGTKLEIK
notes: one-arm format as m2
B15: GLS3000 Q90Y (antibody, name in Kabat numbering, V domains shown)
VH: QVQLVESGGGVVQPGRSLRLSCAASGFTFSNAWMHWVRQAPGKGLEWVAQIKAKSNNYATYYAESVKGRFTISRDDSKNSLYLQMNSLKTEDTAVYYCRYVHYGAYYGVDAWGQGTTVTVSS
VL: DIVMTQSPLSLPVTPGEPASISCRSSQSLVHSNRNTYLHWYQQKPGQAPRLLIYKVSNRFSGVPDRFSGSGSGTDFTLKISRVEAEDVGVYYCGYGTQVPYTFGQGTKLEIK
notes: one-arm format as m2

CD3ε homodimer protein, sequence (P07766 23-126 limits assumed): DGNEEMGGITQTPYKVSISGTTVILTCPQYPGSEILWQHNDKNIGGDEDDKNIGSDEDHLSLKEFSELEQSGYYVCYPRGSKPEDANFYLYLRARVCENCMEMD

This test concerns the target CD3ε homodimer protein (human, UniProt P07766 23-126, limits assumed). Description: SPR, immobilized CD3ε homodimer.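 Also: biacore T200 surface plasmon resonance at 25 °C, antibody variants flowed as analytes over amine-coupled CD3ε homodimer on a CM4 chip, variant binding amount divided by that of GLS3000 antibody.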 In general terms: SPR reads the build-up and loss of mass on a sensor chip optically.
As to B1, the “ratio of amounts bound (vs GLS3000)” value turned out to be 0.5.

Take B2: the “ratio of amounts bound (vs GLS3000)” value worked out at 0.27.

As for B3, the “ratio of amounts bound (vs GLS3000)” value was 0.75.

For B4, the “ratio of amounts bound (vs GLS3000)” value amounted to 0.87.

Take B5: the “ratio of amounts bound (vs GLS3000)” value was found to be 0.96.

For the molecule B6, the “ratio of amounts bound (vs GLS3000)” value stood at 0.85.

As to B7, the “ratio of amounts bound (vs GLS3000)” value was determined as 0.86.

On to B8, for which the “ratio of amounts bound (vs GLS3000)” value is 0.85.

For the molecule B9, the “ratio of amounts bound (vs GLS3000)” value was found to be 0.75.

With B10, the “ratio of amounts bound (vs GLS3000)” value amounted to 0.73.

B11: the “ratio of amounts bound (vs GLS3000)” value amounted to 1.13.

With B12, the “ratio of amounts bound (vs GLS3000)” value stood at 0.19.

In the case of B13, the “ratio of amounts bound (vs GLS3000)” value turned out to be 0.72.

For B14, the “ratio of amounts bound (vs GLS3000)” value was found to be 0.25.

In the case of B15, the “ratio of amounts bound (vs GLS3000)” value was 0.17.
